In US20250092134A1 (Janssen / Centocor, published 2025):

B1: 20C12A3 (antibody, V domains shown)
VH: EVQLQESGAELVRPGTSVKMSCKASGYTFTHYWIDWTKQRPGHGLEWIGNIYPGGGYTNYNENFKGKATLTADKSSSTVFMQFSSLTSDDSAIYYCTRKGYYYGSDWYFDVWGTGTTVTVSS
VL: STSVGDRVSITCKASQDVSTAVAWYHQKPGQSPKLLIYSASYRYTGVPDRFTGSGSGTDFTFTISSVQAEDLAVYYCQQHYTTPYTFGGGTKLEMK
B2: 20A9A9 (antibody, V domains shown)
VH: EVQLQESGPGLVQPSQSLSITCTVSGFSLTSYGVHWVRQSPGKGLEWLGIIWSAGGTDYNAAFISRLSISKDNSKSQIFFKLNSLHADDTAIYFCARGSFYDYGRLDYWGQGTTLTVSS
VL: DIVMTQSHRFMSTSVGDRVSITCKASQDVSTAVAWYQQKPGQSPKLLIYSSSYRYTGVPDRFTGSGSGTDFTFTISSVQAEDLAVYYCQQHYGTPYTFGGGTKLEIQ
B3: 23A9B10 (antibody, V domains shown)
VH: EVQLQESGPGLVKPSQSLSLTCSVTGYSITSGYYWNWIRQFLGNKLEWMGYITYDGSNNYNPSLKDRISITRDTSKNQFFLNLNSVTTDDTATYYCARGGGYVPVWGTGTTVTVSS
VL: IQMTQSPAFLSVSPGERVSFSCRASQNIGTSIHWYQQRTNGSPRLLIKYASESISGIPSRFSGSGSGTDFTLSINSVESEDFADYYCHQSHNWPTTFGAGTKLELK

Target: Vβ17 (on cells expressing Vβ17)
Sequence (A0A075B6N1 22-114): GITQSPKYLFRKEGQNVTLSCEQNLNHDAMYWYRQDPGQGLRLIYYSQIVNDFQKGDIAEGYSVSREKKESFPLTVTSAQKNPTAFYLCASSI
Experiment: cell-based or functional assay

Point of comparison: B2, “Cell Internalization (EC50)” value 0.29 nM. Against it:
- B1 — 4.8-fold lower, 0.06 nM
- B3 — 53-fold higher, 15.4 nM
